Laboratory results taken from publication PMC5072561.

How the values were obtained:
[1] = molecular target: tunA (tunicate A, CBY12809.1), Oikopleura dioica S100 protein (Oikopleura dioica); experiment: AUC; sedimentation velocity; ~50 uM protein; 25 mM TES, 100 mM NaCl, 1 mM TCEP, pH 7.4; interference optics; c(s) by SedFit; monomer to dimer
[2] = molecular target: tunA (tunicate A, CBY12809.1), Oikopleura dioica S100 protein (Oikopleura dioica); experiment: native MS; nanoESI time-of-flight MS; 10 or 100 mM ammonium acetate, pH 7.4; protein diluted from 10 uM to 0.01 uM; monomer to dimer
[3] = molecular target: tunB (tunicate B, CBY30360.1), Oikopleura dioica S100 protein (Oikopleura dioica); experiment: AUC; sedimentation velocity; ~50 uM protein; 25 mM TES, 100 mM NaCl, 1 mM TCEP, pH 7.4; interference optics; c(s) by SedFit; monomer to dimer
[4] = molecular target: tunB (tunicate B, CBY30360.1), Oikopleura dioica S100 protein (Oikopleura dioica); experiment: native MS; nanoESI time-of-flight MS; 10 or 100 mM ammonium acetate, pH 7.4; protein diluted from 10 uM to 0.01 uM; monomer to dimer

stoichiometry N [1] | stoichiometry N [2] | stoichiometry N [3] | stoichiometry N [4] | Substance
2 | 2 | – | – | tunA (tunicate A, CBY12809.1), Oikopleura dioica S100 protein (natural protein)
– | – | 2 | 2 | tunB (tunicate B, CBY30360.1), Oikopleura dioica S100 protein (natural protein)
